Consider 125 sequences from the supplement of paper PMC9112550, “Optimization of the antimicrobial peptide Bac7 by deep mutational scanning” (BMC Biology, 2022).
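Also: peptides expressed intracellularly from a pBAD plasmid library in pooled LB shake-flask culture, induced with 0.3% L-arabinose, DNA abundance read by NGS, three biological replicates, DESeq2 with apeglm shrinkage.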

For this series, the system named is Escherichia coli TOP10. Briefly: shrunken log2 fold change of peptide-encoding DNA abundance (4.5 h post-induction vs induction); higher = less antimicrobial activity (less host growth inhibition). The conditions noted are these: time post-induction: 4.5 h; library: site-saturation at positions 5, 18, 19, 20.
Turning to RRIRARPPRLPRPRPRPYCMPRP, the “shrunken log2 fold change” value was -0.495.
In the case of RRIRYRPPRLPRPRPRPEIEPRP it was -0.0892.
In the case of RRIRGRPPRLPRPRPRPSWTPRP it was 0.219.
In the case of RRIRARPPRLPRPRPRPAAFPRP it was 0.787.
With RRIRLRPPRLPRPRPRPYYMPRP, the “shrunken log2 fold change” value is -0.671.
For RRIRHRPPRLPRPRPRPMVCPRP, the “shrunken log2 fold change” value was -0.0703.
In the case of RRIRFRPPRLPRPRPRPSDRPRP it was -0.853; in that of RRIRARPPRLPRPRPRPLRLPRP, 0.809.
RRIRLRPPRLPRPRPRPGIEPRP: the “shrunken log2 fold change” value is -0.00975.
In the case of RRIRHRPPRLPRPRPRPRFAPRP it was 0.0665; in that of RRIRDRPPRLPRPRPRPEDSPRP, 0.882; in that of RRIRKRPPRLPRPRPRPDRNPRP, 0.158.
In the case of RRIRERPPRLPRPRPRPIGCPRP it was -0.00631; in that of RRIRFRPPRLPRPRPRPITCPRP, -1.15.
As to RRIRDRPPRLPRPRPRPPQHPRP, the “shrunken log2 fold change” value turned out to be 0.171.
As for RRIRSRPPRLPRPRPRPICQPRP, the “shrunken log2 fold change” value is -0.00676.
In the case of RRIRPRPPRLPRPRPRPVNCPRP it was -0.118; in that of RRIRLRPPRLPRPRPRPMCNPRP, 0.107; in that of RRIRWRPPRLPRPRPRPKDTPRP, -0.145.
For RRIRFRPPRLPRPRPRPWRYPRP, the “shrunken log2 fold change” value is -0.161.
In the case of RRIRRRPPRLPRPRPRPLEPPRP it was 0.582; in that of RRIRVRPPRLPRPRPRPCEKPRP, -0.0491; in that of RRIRNRPPRLPRPRPRPSNRPRP, -0.138.
Next, RRIRQRPPRLPRPRPRPGMQPRP: 0.00486.
Turning to RRIRVRPPRLPRPRPRPIFMPRP, the “shrunken log2 fold change” value is -0.363.
Next, RRIRHRPPRLPRPRPRPFYTPRP: -1.02.
In the case of RRIRHRPPRLPRPRPRPVHFPRP it was -0.011; in that of RRIRCRPPRLPRPRPRPVAAPRP, 0.689; in that of RRIRDRPPRLPRPRPRPTQRPRP, 0.746.
Next, RRIRVRPPRLPRPRPRPQTRPRP: 0.355.
Take RRIRPRPPRLPRPRPRPWAHPRP: the “shrunken log2 fold change” value is -0.00675.
Take RRIRMRPPRLPRPRPRPPKCPRP: the “shrunken log2 fold change” value was 0.0414.
Next, RRIRWRPPRLPRPRPRPKHLPRP: 0.0564; RRIRRRPPRLPRPRPRPRDYPRP: -0.116; RRIRDRPPRLPRPRPRPWCYPRP: 0.155.
In the case of RRIRYRPPRLPRPRPRPYLLPRP it was -1.28.
In the case of RRIRARPPRLPRPRPRPWTHPRP it was 0.04; in that of RRIRRRPPRLPRPRPRPCGQPRP, 0.205; in that of RRIRQRPPRLPRPRPRPNLVPRP, 0.0528.
Turning to RRIRMRPPRLPRPRPRPMAQPRP, the “shrunken log2 fold change” value was -0.0018.
Next, RRIRQRPPRLPRPRPRPPGCPRP: 0.342; RRIRLRPPRLPRPRPRPNAKPRP: -0.0021; RRIRARPPRLPRPRPRPILVPRP: -0.122.
In the case of RRIRVRPPRLPRPRPRPLMNPRP it was -0.649; in that of RRIRGRPPRLPRPRPRPWYVPRP, -2.24; in that of RRIRRRPPRLPRPRPRPMPPPRP, 0.676.
In the case of RRIRMRPPRLPRPRPRPYKSPRP it was -0.215.
For RRIRIRPPRLPRPRPRPWLMPRP, the “shrunken log2 fold change” value is -0.202.
Next, RRIRHRPPRLPRPRPRPGGRPRP: 0.0167; RRIRFRPPRLPRPRPRPRNIPRP: -0.313; RRIRWRPPRLPRPRPRPANDPRP: -0.0438.
In the case of RRIRDRPPRLPRPRPRPFTKPRP it was -0.262; in that of RRIRLRPPRLPRPRPRPEKRPRP, -0.148.
Next, RRIRPRPPRLPRPRPRPCMDPRP: -0.561; RRIRKRPPRLPRPRPRPCVHPRP: -0.266; RRIRGRPPRLPRPRPRPVTVPRP: 0.0499.
In the case of RRIRERPPRLPRPRPRPILNPRP, the “shrunken log2 fold change” value worked out at 2.73.
In the case of RRIRVRPPRLPRPRPRPIKWPRP it was -0.161; in that of RRIRTRPPRLPRPRPRPSRGPRP, 0.178.
Next, RRIRIRPPRLPRPRPRPAQNPRP: -0.0711; RRIRKRPPRLPRPRPRPIMQPRP: -0.0251; RRIRNRPPRLPRPRPRPEHKPRP: 0.00308.
Next, RRIRGRPPRLPRPRPRPHGEPRP: 0.164; RRIRHRPPRLPRPRPRPRKKPRP: -0.0239; RRIRGRPPRLPRPRPRPESIPRP: 0.483.
Take RRIRLRPPRLPRPRPRPPTSPRP: the “shrunken log2 fold change” value was found to be 0.493.
Next, RRIRPRPPRLPRPRPRPYMRPRP: -0.000384; RRIRSRPPRLPRPRPRPVATPRP: 0.707; RRIRFRPPRLPRPRPRPCWAPRP: 0.105.
In the case of RRIRIRPPRLPRPRPRPDEWPRP it was -0.0975; in that of RRIRVRPPRLPRPRPRPANTPRP, -0.0315.
In the case of RRIRWRPPRLPRPRPRPCVMPRP it was 0.0583.
RRIRCRPPRLPRPRPRPCNKPRP: the “shrunken log2 fold change” value was -0.671.
In the case of RRIRMRPPRLPRPRPRPGAPPRP it was 1.31; in that of RRIRRRPPRLPRPRPRPTCFPRP, 0.469.
Turning to RRIRMRPPRLPRPRPRPSDAPRP, the “shrunken log2 fold change” value came out at 0.617.
In the case of RRIRSRPPRLPRPRPRPRYFPRP it was -0.0823; in that of RRIRSRPPRLPRPRPRPVTKPRP, -0.00403; in that of RRIRMRPPRLPRPRPRPWKVPRP, -0.0135.
Next, RRIRDRPPRLPRPRPRPRNAPRP: -0.145; RRIRHRPPRLPRPRPRPVCIPRP: -1.22; RRIRLRPPRLPRPRPRPTYYPRP: -0.399.
Next, RRIRLRPPRLPRPRPRPFTWPRP: -0.369; RRIRDRPPRLPRPRPRPWHKPRP: -0.11; RRIRVRPPRLPRPRPRPIFCPRP: 0.078.
For RRIRVRPPRLPRPRPRPPDWPRP, the “shrunken log2 fold change” value was 0.46.
On to RRIRGRPPRLPRPRPRPNRKPRP, for which the “shrunken log2 fold change” value turned out to be 0.195.
In the case of RRIRTRPPRLPRPRPRPAENPRP it was 0.0214; in that of RRIRPRPPRLPRPRPRPPICPRP, -0.474.
Next, RRIRPRPPRLPRPRPRPGFHPRP: -0.0164.
Next, RRIRMRPPRLPRPRPRPMDMPRP: 0.482.
RRIRHRPPRLPRPRPRPLIDPRP: the “shrunken log2 fold change” value is -0.408.
In the case of RRIRFRPPRLPRPRPRPDSMPRP it was -0.715; in that of RRIRMRPPRLPRPRPRPPAEPRP, 3.68; in that of RRIRDRPPRLPRPRPRPRLLPRP, 0.146.
In the case of RRIRDRPPRLPRPRPRPHHTPRP it was -1.13; in that of RRIRFRPPRLPRPRPRPYLKPRP, -1.36; in that of RRIRFRPPRLPRPRPRPNDKPRP, -0.32.
Next, RRIRIRPPRLPRPRPRPECDPRP: 0.0126; RRIRGRPPRLPRPRPRPCFWPRP: 0.67; RRIRIRPPRLPRPRPRPHENPRP: -0.581.
For RRIRERPPRLPRPRPRPFYQPRP, the “shrunken log2 fold change” value is -0.0388.
Next, RRIRRRPPRLPRPRPRPLWRPRP: 0.348.
Turning to RRIRCRPPRLPRPRPRPFVSPRP, the “shrunken log2 fold change” value is -0.265.
Next, RRIRSRPPRLPRPRPRPKVGPRP: 0.176.
Next, RRIRCRPPRLPRPRPRPVMEPRP: -0.0475.
For RRIRNRPPRLPRPRPRPRANPRP, the “shrunken log2 fold change” value worked out at 0.0572.
Take RRIRLRPPRLPRPRPRPSEYPRP: the “shrunken log2 fold change” value was -0.675.
Consider RRIRWRPPRLPRPRPRPEDNPRP, for which the “shrunken log2 fold change” value came out at 0.547.
For the sequence RRIRIRPPRLPRPRPRPPNMPRP, the “shrunken log2 fold change” value was -0.422.
On to RRIRHRPPRLPRPRPRPAQSPRP, for which the “shrunken log2 fold change” value is -0.0382.
Next, RRIRDRPPRLPRPRPRPHALPRP: -0.225.
Next, RRIRYRPPRLPRPRPRPFCIPRP: -1.5; RRIRPRPPRLPRPRPRPFTSPRP: -0.512.
With RRIRTRPPRLPRPRPRPYRDPRP, the “shrunken log2 fold change” value is -0.383.
For RRIRNRPPRLPRPRPRPCGDPRP, the “shrunken log2 fold change” value is 0.0293.
Next, RRIRPRPPRLPRPRPRPNWAPRP: 0.176; RRIRSRPPRLPRPRPRPRYDPRP: -0.444; RRIRKRPPRLPRPRPRPLGGPRP: 0.288.
In the case of RRIRHRPPRLPRPRPRPLMCPRP it was 0.0994.
In the case of RRIRYRPPRLPRPRPRPERDPRP it was 0.0217; in that of RRIRHRPPRLPRPRPRPLDEPRP, -0.0217.
In the case of RRIRERPPRLPRPRPRPEMEPRP, the “shrunken log2 fold change” value is -0.0231.
In the case of RRIRIRPPRLPRPRPRPEMEPRP it was -0.0895; in that of RRIRFRPPRLPRPRPRPGFLPRP, -0.296.
